Source: PMC2700308 (Biochemistry, 2009)
Square brackets hold non-standard residues; d marks the D form. Ends that are not written are not given here. sY = N[C@@H](Cc1ccc(OS(=O)(=O)O)cc1)C(=O)O

Biological target: Full-length gp120 from the subtype B YU2 HIV-1 strain (HIV-1, subtype B, strain YU2, UniProt P35961 32-498)
Test: ITC

## MDYQVSSPI[sY]DIN[sY]YTSEPSQK [S22 peptide, 22 amino acid tyrosine-sulfated peptide corresponding to the CCR5 N-terminus]
  Kd: ≥ 1000 µM
